# In IntAct's records for PubMed 38057552:
# B1: Sodium/glucose cotransporter 2 (Homo sapiens), P31639 (parent)
# chain: MEEHTEAGSAPEMGAQKALIDNPADILVIAAYFLLVIGVGLWSMCRTNRGTVGGYFLAGRSMVWWPVGASLFASNIGSGHFVGLAGTGAASGLAVAGFEWNALFVVLLLGWLFAPVYLTAGVITMPQYLRKRFGGRRIRLYLSVLSLFLYIFTKISVDMFSGAVFIQQALGWNIYASVIALLGITMIYTVTGGLAALMYTDTVQTFVILGGACILMGYAFHEVGGYSGLFDKYLGAATSLTVSEDPAVGNISSFCYRPRPDSYHLLRHPVTGDLPWPALLLGLTIVSGWYWCSDQVIVQRCLAGKSLTHIKAGCILCGYLKLTPMFLMVMPGMISRILYPDEVACVVPEVCRRVCGTEVGCSNIAYPRLVVKLMPNGLRGLMLAVMLAALMSSLASIFNSSSTLFTMDIYTRLRPRAGDRELLLVGRLWVVFIVVVSVAWLPVVQAAQGGQLFDYIQAVSSYLAPPVSAVFVLALFVPRVNEQGAFWGLIGGLLMGLARLIPEFSFGSGSCVQPSACPAFLCGVHYLYFAIVLFFCSGLLTLTVSLCTAPIPRKHLHRLVFSLRHSKEEREDLDADEQQGSSLPVQNGCPESAMEMNEPQAPAPSLFRQCLLWFCGMSRGGVGSPPPLTQEEAAAAARRLEDISEDPSWARVVNLNALLMMAVAVFLWGFYA
# partner: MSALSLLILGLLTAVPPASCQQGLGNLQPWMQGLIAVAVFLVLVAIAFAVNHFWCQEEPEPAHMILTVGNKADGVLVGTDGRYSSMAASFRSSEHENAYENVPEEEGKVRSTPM
# Variants of: B1
# Settings: with pdz1i_human PDZK1IP1, Q13113
row,Variant,effect of a mutation on the interaction
1,D201A,with no effect
2,F98A,with no effect
3,S74A,with no effect
